Measurements taken from patent publication US10772928B2, “Modulation and detection of a neuronal alternative splicing regulatory network for treatment and diagnosis of neurological disorders” (The Governing Council of the University of Toronto, priority 2014, dated 2020).
Values belong to the molecule of their own block, whether it stands above or below them.

Target: T1, nSR100 (Mus musculus, UniProt Q8BKA3)
T1 construct: host or cells: mouse N2A cells
T1 sequence (Q8BKA3 1-608): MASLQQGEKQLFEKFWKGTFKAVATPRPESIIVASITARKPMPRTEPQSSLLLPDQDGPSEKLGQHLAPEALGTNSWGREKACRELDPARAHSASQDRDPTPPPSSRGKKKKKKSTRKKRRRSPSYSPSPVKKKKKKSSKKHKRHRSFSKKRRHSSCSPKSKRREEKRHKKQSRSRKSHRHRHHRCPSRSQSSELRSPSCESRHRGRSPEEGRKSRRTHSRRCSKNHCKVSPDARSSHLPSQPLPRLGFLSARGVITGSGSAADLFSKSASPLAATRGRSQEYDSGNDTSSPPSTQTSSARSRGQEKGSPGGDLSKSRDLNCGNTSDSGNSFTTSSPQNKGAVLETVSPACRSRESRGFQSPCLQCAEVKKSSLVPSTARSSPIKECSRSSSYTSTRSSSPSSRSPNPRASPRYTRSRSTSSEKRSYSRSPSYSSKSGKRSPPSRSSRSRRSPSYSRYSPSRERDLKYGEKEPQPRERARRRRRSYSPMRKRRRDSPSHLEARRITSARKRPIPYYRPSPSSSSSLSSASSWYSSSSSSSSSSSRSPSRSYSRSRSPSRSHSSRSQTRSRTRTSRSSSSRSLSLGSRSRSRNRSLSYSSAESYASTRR
Assay: AP-MS nSR100 interaction partners from mouse N2A cells (Table 5)
Assay type: binding
Settings: for AvgP (average of the SAINT scores) / MaxP (maximal SAINT score): bait Srrm4; for FoldChange between the prey Avg spectra of the bait and control purifications: bait Srrm4, 0.1 added to prevent division by 0; for AvgSpec (average number of spectra per replicate): bait Srrm4, 2 replicates; for Spectra (number of spectra for the prey in the purification of the bait): AP-MS; for SpecSum: bait Srrm4, sum of spectra over 2 replicates

[1] = bait Srrm4, biological replicate 1 (first number of the cell)
[2] = bait Srrm4, biological replicate 2 (second number of the cell)

Text: By applying affinity purification coupled to mass-spectrometry (AP-MS), several interaction nSR100 partner proteins were detected that provide insight into mechanisms of post-translational regulation of nSR100 levels.

B3: Ddx6 (protein, UniProt P54823 1-483, looked up)
Probable ATP-dependent RNA …: MSTARTENPVIMGLSSQNGQLRGPVKASAGPGGGGTQPQPQLNQLKNTSTINNGTPQQAQSMAATIKPGDDWKKTLKLPPKDLRIKTSDVTSTKGNEFEDYCLKRELLMGIFEMGWEKPSPIQEESIPIALSGRDILARAKNGTGKSGAYLIPLLERLDLKKDNIQAMVIVPTRELALQVSQICIQVSKHMGGAKVMATTGGTNLRDDIMRLDDTVHVVIATPGRILDLIKKGVAKVDHVQMIVLDEADKLLSQDFVQIMEDIILTLPKNRQILLYSATFPLSVQKFMNSHLQKPYEINLMEELTLKGVTQYYAYVTERQKVHCLNTLFSRLQINQSIIFCNSSQRVELLAKKISQLGYSCFYIHAKMRQEHRNRVFHDFRNGLCRNLVCTDLFTRGIDIQAVNVVINFDFPKLAETYLHRIGRSGRFGHLGLAINLITYDDRFNLKSIEEQLGTEIKPIPSNIDKSLYVAEYHSEPAEDEKP
AvgP (average of the SAINT scores): 0.97
MaxP (maximal SAINT score): 1
FoldChange between the prey Avg spectra of the bait and control purifications: 30
AvgSpec (average number of spectra per replicate): 3
Spectra (number of spectra for the prey in the purification of the bait) [1]: 2
Spectra (number of spectra for the prey in the purification of the bait) [2]: 4
SpecSum: 6

B5: Grpel1 (protein, UniProt Q99LP6 28-217, looked up)
GrpE protein homolog 1, …: CTATKQKNNGQNLDEDLGHCEPKTDPPSADKTLLEEKAKLEEQLRETMEKYKRALADTENLRQRSQKLVEEAKLYGIQGFCKDLLEVADILEKATQSVPKEEISNNNPHLKSLYEGLVMTEVQIQKVFTKHGLLRLDPIGAKFDPYEHEALFHTPVEGKEPGTVALVSKVGYKLHGRTLRPALVGVVKDA
AvgP (average of the SAINT scores): 0.97
MaxP (maximal SAINT score): 0.98
FoldChange between the prey Avg spectra of the bait and control purifications: 3.3
AvgSpec (average number of spectra per replicate): 16.5
Spectra (number of spectra for the prey in the purification of the bait) [1]: 16
Spectra (number of spectra for the prey in the purification of the bait) [2]: 17
SpecSum: 33

B7: Fam76b (protein, UniProt Q80XP8 2-339, looked up)
Protein FAM76B: AASALYACTKCTQRYPFEELSQGQQLCKECRIAHPIVKCTYCRSEFQQESKTNTICKKCAQNVKQFGTPKPCQYCNIIAAFIGTKCQRCTNSEKKYGAPQTCEQCKQQCAFDRKEEGRRKVDGKLLCWLCTLSYKRVLQKTKEQRKSLGSSHSNSSSSSLTEKDQHHSKHHHHHHHHHHRHSSGHHKVSSLSPEQEQGLWKQSHKSSAAIQNETPKKKPKLESKPSNGDSSSINQSADSGGTDNFVLISQLKEEVMSLKRLLQQRDQTILEKDKKLTELKADFQYQESNLRTKMNSMEKAHKETVEQLQAKNRELLKQVAALSKGKKFDKSGSVLTSP
AvgP (average of the SAINT scores): 0.98
MaxP (maximal SAINT score): 1
FoldChange between the prey Avg spectra of the bait and control purifications: 35
AvgSpec (average number of spectra per replicate): 3.5
Spectra (number of spectra for the prey in the purification of the bait) [1]: 2
Spectra (number of spectra for the prey in the purification of the bait) [2]: 5
SpecSum: 7

Next, values leading:

AvgP (average of the SAINT scores): 0.97
MaxP (maximal SAINT score): 0.99
FoldChange between the prey Avg spectra of the bait and control purifications: 25
AvgSpec (average number of spectra per replicate): 2.5
Spectra (number of spectra for the prey in the purification of the bait) [1]: 2
Spectra (number of spectra for the prey in the purification of the bait) [2]: 3
SpecSum: 5
B1: Sfswap (protein, UniProt Q3USH5 1-945, looked up)
Splicing factor, suppressor …: MYGAGGGRAKPERKGGVKEEAGPGGTGTGGNRVELLVFGYACKLFRDDERALAQEQGQHLIPWMGDPKILIDRYDGRGHLHDLSAYDAEYATWNRDYQLSEEEARVEALCDEERYLALHTDLLEEEARQEEEYKRLSEALAEDGNYSAVGFTYGSDYYDPSEPTEEEEPSKQREKNEAENLEENEEPFIAPLGLSVPSDVELPPTAKMHAIIERTANFVCKQGAQFEIMLKAKQARNSQFDFLRFDHYLNPYYKFIQKAMKEGRYTVLAESKNEEKKKSGPTSDNEEEDDEEDGSYLHPSLFASKKSSRLEELMKPLKVVDPDHPLAALVRKAQADSSAPAPPTADGTPAQPSQVEYTADSTVAAMYYSYYMLPDGTYCLAPPPPGIDVATYYSTLPAGVTVSSSPGVTTTVPPPPGTTPPPPPTTAEPSSGVTSTTTTTSALAPVAIIPPPPDIQPVIDKLAEYVARNGLKFETSVRAKNDQRFEFLQPWHQYNAYYEFKKQFFLQKEGGGSTQAASTAEEAPTETAVEESGEAGEDGAPEGMAETGGRGSGKKEAGSSKSTVDGKLVKASFAPISFAIKAKENDLLPLEKNRVKLDDDSEEDEESRECQESTSSVANPSPAAAPPSVAVEEKKPQLTQEELEAKQAKQKLEDRLAAAAREKLAQASKESKEKQLQAERKRKAALFLQTLKNPLPEAEVGKLEESTFGVEDTGVMPCPLLVGGRTLPILEGKPPERPSNRCRDPPREEEREKKKKKHKKRSRTRSRSPKYHSSSKPRSRSHSKAKHSLPSAYRTVRRSRSRSRSPRRRAHSPERRREERSVPTAYRMSGSPGVSRKRTRSRSPHEKKKKRRSRSRTKAKARSQSTSPSKQAAQRPSAHSAHSASISPVESRGSSQERSRGVSQEKDGQISSAIVSSVQSKITQDLMAKVRAMLAASKNLQTSAS

AvgP (average of the SAINT scores): 0.97
MaxP (maximal SAINT score): 0.99
FoldChange between the prey Avg spectra of the bait and control purifications: 25
AvgSpec (average number of spectra per replicate): 2.5
Spectra (number of spectra for the prey in the purification of the bait) [1]: 3
Spectra (number of spectra for the prey in the purification of the bait) [2]: 2
SpecSum: 5
B2: Rab5c (protein, UniProt P35278 1-216, looked up)
Ras-related protein Rab-5C: MAGRGGAARPNGPAAGNKICQFKLVLLGESAVGKSSLVLRFVKGQFHEYQESTIGAAFLTQTVCLDDTTVKFEIWDTAGQERYHSLAPMYYRGAQAAIVVYDITNTDTFARAKNWVKELQRQASPNIVIALAGNKADLASKRAVEFQEAQAYADDNSLLFMETSAKTAMNVNEIFMAIAKKLPKNEPQNAAGAPGRTRGVDLQESNPASRSQCCSN

AvgP (average of the SAINT scores): 0.97
MaxP (maximal SAINT score): 0.99
FoldChange between the prey Avg spectra of the bait and control purifications: 25
AvgSpec (average number of spectra per replicate): 2.5
Spectra (number of spectra for the prey in the purification of the bait) [1]: 2
Spectra (number of spectra for the prey in the purification of the bait) [2]: 3
SpecSum: 5
B4: Wbp11 (protein, UniProt Q923D5 1-641, looked up)
WW domain-binding protein 11: MGRRSTSSTKSGKFMNPTDQARKEARKRELKKNKKQRMMVRAAVLKMKDPKQIIRDMEKLDEMEFNPVQQPQLNEKVLKDKRKKLRETFERILRLYEKENPDIYKELRKLEVEYEQKRAQLSQYFDAVKNAQHVEVESIPLPDMPHAPSNILIQDIPLPGAQPPSILKKTSAYGPPARAVSILPLLGHGVPRLPPGRKPPGPPPGPPPPQVLQMYGRKVGFALDLPPRRRDEDMLYSPELAQRGHDDDMSSTSEDDGYPEDMDQDKHDDSTEDSDTDRSDAESDGDEFGHREDSERDNTEEKKSGLSVRFADMPGKSRKKKKNMKELTPLQAMMLRMAGQEIPEEGREVEEFSEEEDADDSDDSEAEKQSQKQHKDDGHSDSTAAASSQQQAPPQSAPASQIQAPPMPGPPPLGPPPAPPLRPPGPPTGLPPGPPPGAPPFLRPPGMPGIRGPLPRLLPPGPPPGRPPGPPPGPPPGLPPGPPPRGPPPRLPPPAPPGIPPPRPGMMRPPLVPPLGPAPPGLFPPAPLPNPGVLSAPPSLIQRPKADDASAATIEKKATATISAKPQITNPKAEVTRFVPTALRVRRENKGATAVPQRRSEDDSAVPVAKAAPRSGPSVAVSVQTKDDVYEAFMKEMEGLL

AvgP (average of the SAINT scores): 0.97
MaxP (maximal SAINT score): 1
FoldChange between the prey Avg spectra of the bait and control purifications: 30
AvgSpec (average number of spectra per replicate): 3
Spectra (number of spectra for the prey in the purification of the bait) [1]: 2
Spectra (number of spectra for the prey in the purification of the bait) [2]: 4
SpecSum: 6
B6: Wdr11 (protein, UniProt Q8K1X1 1-1223, looked up)
WD repeat-containing protein …: MLPYTVNFKVSARTLTGALNAHNKAAVDWGWQGLIAYGCHSLVVVIDSNTAQTLQVLEKHKADIVKVRWARENYHHNIGSPYCLRLASADVTGKIIVWDVAAGVAQCEIQEHVKPIQDVQWLWNQDASRDLLLAIHPPNYIVLWNADTGTKLWKKSYADNILSFSFDPFDPSHLTLLTSEGIVFISDFSPSKPPSGPGKKVYISSPHSSPAHNKLAAATGAKKALNKVKILITQEKPSADFVALNDCLQLAYLPSKRNHMLLLYPREILILDLEVNQTVGVIAIERTGVPFLQVIPCSQRDGLFCLHENGCITLRVRRSYNSICTTSNDEPDLDPVQELTYDLRSQCDAIRVTKTVRPFSMVCCPVNENAAALIVSDGRVMIWELKSAVCSRNARNSSGVSPLYSPVSFCGIPGGVLQNKLPDLSLDNMIGQSAIAGEEHPKGSILQEVHLKFLLTGLLSGLPSPQFAIRMCPPLTTKNIKTYQPLLAVGTSNGSVLVYHLTSGLLHKELSVHSCEVKGIEWTSLTSFLSFAASTPNNMGLVRNELQLVDLPTGRSTAFRGDRGNDESPIEMIKVSHLKQYLAVVFKDKPLELWDIRTCTLLREMSKSFPAITALEWSPSHNLKSLRKKQLATREAMARQTVVSDAELGAVESSVISLLQEAESKAELSQNISAREHFVFTDNDGQVYHLTVEGNSVKDSARIPPDGSMGSITCIAWKGDTLVLGDMDGNLNFWDLKARVSRGIPTHRSWVRKIRFAPGKGNQKLIAMYNDGAEVWDTKEVQMVSSLRSGRNVTFRILDVDWCTSDKVILASDDGCIRVLEMSMKSTCFRMDEQELVEPVWCPYLLVPRAALALKAFLLHQPWNGRYSLDISHIDYPENEEIKTLLQEQLHALSNDIKKLLLDPDFSLLQRCLLVSRLYGDESELHFWTVAAHYLHSLSQAKSGDTVVTKEGAPKDRLSNPLDICYDVLCENTYFQKFQLERVNLQEVKRSTYDHTRKCTDQLLLLGQTDRAVQLLLETSADNQHYYCDSLKACLVTTVTSSGPSQSTIKLVATNMIANGKLAEGVQLLCLIDKAADACRYLQTYGEWNRAAWLAKVRLNSEECADVLKRWVDHLCSPQVNQKSKALLVLLSLGCFVSVAETLHSMRYFDRAALFVEACLKYGAFEVSEDTEKLIAAIYADYARSLKSLGFRQGAVRFASKAGAAGRDLLNELGSTKEELTES
